Source: the supplement of paper PMC9170038

System: MS2 coat protein
Test: apparent KD of MS2 coat protein; designed switch direction (-1 OFF switch, 1 ON switch): 1; higher = weaker reporter binding
Method in brief: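 Each step of the titration lasted 0.8–1.5 h at the lowest concentration and 10–20 min at the highest. The protein, SNAP-549-labelled MS2 coat protein, went from 0.7 or 1.5 nM doubling to 3 µM over RNA switches transcribed on Illumina chips by stalled E. coli RNA polymerase. Normalised cluster fluorescence was curve-fitted, and the per-design median over clusters is given as apparent KD.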

[1] = input ligand: microRNA oligo, concentration not stated
[2] = Eterna round: R95, input ligand: FMN 200 uM
[3] = Eterna round: R95, input ligand: microRNA oligo, concentration not stated
[4] = Eterna round: R95, input ligand: none

Row | Sequence | apparent KD of MS2 coat protein (input ligand: FMN 200 uM) [µM] | apparent KD of MS2 coat protein [1] [µM] | apparent KD of MS2 coat protein (input ligand: none) [µM] | apparent KD of MS2 coat protein [2] [µM] | apparent KD of MS2 coat protein [3] [µM] | apparent KD of MS2 coat protein [4] [µM]
1 | GUGACCUCCCUAGGAUAUCGCCAAAUGUGAUGUCGACAUGAGGAUCACCCAUGUAUAGUCACGAACGAGAAGGAGGGUGUGGCA [Cesodi] (Eterna round: R96, puzzle: Same State NG 2) | 0.0156 | 0.0175 | 0.0194 |  |  | 
2 | UGGCUCAGAGCAGGAUAUAUGUCUCGAGCUUCGGCUCGAGACAUGAGGAUCACCCAUGUAAUAACAUAGAAGGGCUCUGAGCCA [SSNG2/1-B2] (Eterna round: R96, puzzle: Same State NG 2) | 0.0163 | 0.0417 | 0.0747 |  |  | 
3 | AAAAUGCGGGAAGGAUAUGGGAAAGGAAGUGUACCAGAAGGUCUCGCGGCCAAGGACAUGAGGAUCACCCAUGUGAACGCCCGA [PowerStrip SSNG 1.9] (Eterna round: R96, puzzle: Same State NG 1) | 0.0981 | 0.041 | 0.0591 |  |  | 
4 | AAAAAACAUGAGGAUCACCCAUGUAAAAAAAUGGGAGGAUAUACAAAAACGAAAGUCAAAGUAGAAGGCCUGAAAA [same state 5] (Eterna round: R96, puzzle: Same State 1) |  | 0.0786 |  |  |  | 
5 | AGUCCAGCCUGAGCUGGACAAAAGCAUGUACAUGAGGAUCACCCAUGUUCAUGUACAAGCUUUUUGCAAGUCAAAAU [Mat - hsa-mir-208a - Mod of JL - 80] (puzzle: Sensor for hsa-mir-208a) |  |  |  | 0.723 | 0.0138 | 0.641
6 | CUGAAAUGUCAAGGAUAUCACGUCGAUUAGACGUGAGAAGGUGAUCUGCACAUGAGGAUCACCCAUGUGUUACAUGGGAAUCAG [Brourd's SSNG1/1-A2 mod 15] (Eterna round: R96, puzzle: Same State NG 1) | 0.289 | 0.0903 | 0.624 |  |  | 
7 | AGUAGUUUAACAUGAGGAUCACCCAUGUAUCUAUCUGUAACCUAGGAUAUGGACGUUUUAUUUAACCAGAAGGAGGAUCGUUUA [JR_SSNG3_Sub045] (Eterna round: R96, puzzle: Same State NG 3) | 0.0171 | 0.0169 | 0.0253 |  |  | 
8 | AGGUUCGUGCUAGGAUAUCUAGGAUAUGGACGAGGAUUACCCGAGCAGGAUUACCGCACCAGAGGAGAGAAGGAGCAACAAGAG [pwkr ssNG2 2F5 2FMN.13] (Eterna round: R96, puzzle: Same State NG 2) | 0.000959 | 0.00501 | 0.42 |  |  | 
9 | GUUAAACAUGAGGAUCACCCAUGUAAUAUAAUGGGAGGAUAUCUGAAUUAAUUAAAUUAAGGAGAAGGCCUAUAUG [Mat - Same State 1 - Mod of Eli - D53] (puzzle: Same State 1) |  |  |  | 0.0366 | 0.21 | 0.271
10 | GUGCAACCGUGUGAGGAUAUCGGUGAUCAGACAUGAGGAUCACCCAUGUCCGAAGCUCGGAUCUCCGAGAAGGCGCACAGUUGCA [Same State 2 - Mod of Erisin v.6] (puzzle: Same State 2) |  |  |  | 0.0928 | 0.232 | 0.296
11 | GGCCAGAGUCAAGGAUAUGCUACCGUUUCGGUAGCAGAAGGUGAUCACAUGAGGAUCACCCAUGUAUACGCUGGAAAGCGGGCC [JL SSNG1 3.64] (Eterna round: R96, puzzle: Same State NG 1) | 0.452 | 0.48 | 1.43 |  |  | 
12 | GCAUUAGGCAUAGGAUAUCCAACAUGAGGAUCACCCAUGUCGCAGCGUGAAAAGAACGCUGCAAAGGAGAAGGAUGCGGUUUAC [Onususa] (Eterna round: R96, puzzle: Same State NG 2) | 0.0118 | 0.0188 | 0.0299 |  |  | 
13 | CGUAGGAUAUGCAGAGGAUCACCCUGUAGAAGGACGAUUACGUAGGAUAUGCAGAGGAUCACCCUGUAGAAGGACGACUAAUCU [pwkr ssNG3 DX 2xF5 +2xFMN.2] (Eterna round: R96, puzzle: Same State NG 3) | 0.174 | 0.105 | 0.129 |  |  | 
14 | GCGAAGAGGUAAGGAUAUUCAUGGCGUAGACAUGAGGAUCACCCAUGUAGGAGACGAAUUAAAAGGGAGAAGGUACCAGGACGC [AK SSNG2-V2-16] (Eterna round: R96, puzzle: Same State NG 2) | 0.0501 | 0.298 | 0.286 |  |  | 
15 | GCGCGAAAGAGCGAGGAUAUGCGGCGUAUAACAUGAGGAUCACCCAUGUCCUUCGAAUCUUGUACGCAGAAGGCGCUACAGGCGC [Robot Leg] (puzzle: Same State 2) |  |  |  | 0.154 | 0.061 | 0.0622
16 | UUAAAACAUGAGGAUCACCCAUGUCAACAAAGUCGAGGAUAUGGGCAAAUAAAAUAAGAACCAGAAGGCGAAUAAU [salish99_SS1_r3_006] (puzzle: Same State 1) |  |  |  | 0.0382 | 0.434 | 0.409

Row | Sequence | apparent KD of MS2 coat protein (input ligand: FMN 200 uM) [µM] | apparent KD of MS2 coat protein [1] [µM] | apparent KD of MS2 coat protein (input ligand: none) [µM] | apparent KD of MS2 coat protein [2] [µM] | apparent KD of MS2 coat protein [3] [µM] | apparent KD of MS2 coat protein [4] [µM]
17 | GGUCCAGCCUGAGCUGGACUAUAGUAUGUACAUGAGGAUCACCCAUGUCAUGUACAAGUAUGUUGUUUGUCUUGAAA [Sensorship 5 - Jieux - Sensor for hsa-mir-208a] (puzzle: Sensor for hsa-mir-208a) |  |  |  | 0.0723 | 0.0654 | 0.103
18 | AGUCCAGCCUGAGCUGGACAAAAGCAUGUACAUGAGGAUCACCCAUGUUCAUGUACAAGCUUUUUGCUCGUCUUCAA [salish99_208a_r3_097x] (puzzle: Sensor for hsa-mir-208a) |  |  |  | 0.701 | 0.0137 | 0.525
19 | UCUUGGUUUUUGCUCGUUUUUUGUGUUGAACAUGAGGAUCACCCAUGUAUUGUACAAUCCAGUUUGAUAAUGGUCCA [Mod of one of JR's submissions] (puzzle: Sensor for hsa-mir-208a) |  |  |  | 0.0802 | 0.0776 | 0.102
20 | AUUGCUUACGCAGGAUAUGAUGUGGAAACUGCGUCAGAAGGGUGAACAGAAUCGUUGCAAGAAGACAUGAGGAUCACCCAUGUC [SameState NG1 #97] (Eterna round: R96, puzzle: Same State NG 1) | 0.042 | 0.0349 | 0.039 |  |  | 
21 | ACCCAAAGUAUAUGGGAACAGGCUUUUUAACAUGAGGAUCACCCAUGUACUCGUCUUAUAAGCAGUCGAAAGACUGC [Sensor 100 - 2] (puzzle: Sensor for hsa-mir-208a) |  |  |  | 0.487 | 0.018 | 0.906
22 | GCCAACACAUGAGGAUAUGGCACCUUAUUGGUGCCAGAAGGCAUGUGAAUUCACAUGAGGAUCACCCAUGUAUUAUAGUUGGCA [Fiskers NG1ss - 19] (Eterna round: R96, puzzle: Same State NG 1) | 0.0188 | 0.0751 | 0.121 |  |  | 
23 | AAGAAUCUAUCUCAGGAUAUCAUGUCAAAGACAUGAGGAUCACCCAUGUACCAGGAAACUGGUUAUGAGAAGGGAGAUAGAUUCG [Mat - Same State 2 - Mod - D37] (puzzle: Same State 2) |  |  |  | 0.235 | 0.134 | 0.233
24 | UCUUGGUUUUUGCUCGUUUUUUGUGUUGAACAUGAGGAUCACCCAUGUAUUGUACGGUCCAAUUUAAUAAUAAUCCA [JMF 74] (puzzle: Sensor for hsa-mir-208a) |  |  |  | 0.059 | 0.0571 | 0.0821
25 | GGAUGAUUAAUAGGAUAUUAUUUGUAAAAUGGUUAAGAAGGAUUAAUGAUUUAAACGACCAGAUACAUGAGGAUCACCCAUGUA [JR_SSNG1_Sub091] (Eterna round: R96, puzzle: Same State NG 1) |  | 0.0195 |  |  |  | 
26 | UGGCUGGUGCUAGGAUAUACAUGAGGAAUCCUCGUAGAAGGAUCACGACAUGAGGAUCACCCAUGUAGCCGUCCGUAGACGGCU [salish99_SSNG1_r04_006] (Eterna round: R96, puzzle: Same State NG 1) | 1.93 | 0.19 | 0.312 |  |  | 
27 | UCUUGGUUUUUGCUCGUUUUUUGUGUUGAACAUGAGGAUCACCCAUGUAUUGUACAGUCCGGUUUAGUGAUGGUCCG [JMF 58] (puzzle: Sensor for hsa-mir-208a) |  |  |  | 0.0402 | 0.0326 | 0.045
28 | GUUACAUGAGGAUCACCCAUGUAUGUGUGGGAGUAAGUGUCUUAGGAUAUCUAGUAUUUAAUGUAAGAGAAGGAAGAUUGUUGU [JMF's solution 64] (Eterna round: R96, puzzle: Same State NG 3) | 0.13 | 0.106 | 0.0961 |  |  | 
29 | CCGCGGGUAUCACAGGAUAUACUCAUAAUUACAUGAGGAUCACCCAUGUGACGGAAUUCCGGUGCGUAGAAGGGUGAUGGACCGC [Onquorbe] (puzzle: Same State 2) |  |  |  | 0.0193 | 0.0521 | 0.0657
30 | GAAUUAAGAGUAGGAUAUGUGGGCGAGCUGCCACCCACAUGAGGAUCACCCAUGUAUGGACACUCACAGAAGGGCUUAUUCAAC [Eternabot solution 37] (Eterna round: R96, puzzle: Same State NG 2) | 0.0688 | 0.0605 | 0.0648 |  |  | 
31 | AGGCUCAGACGAGGAUAUGAUCAUGGCGCUUCGGCGCAUACAUGAGGAUCACCCAUGUAGGGUGAUCAGAAGGCGUCUGAGCCA [SSNG2/8-A1] (Eterna round: R96, puzzle: Same State NG 2) | 0.0421 | 0.225 | 0.314 |  |  | 
